In the assay the target is murine CD95L, endogenous in SMA-560 tumor explants (murine) (UniProt P41047). Kind of assay: cell-based or functional assay.
Sequence of UniProt P41047 (P41047 whole entry): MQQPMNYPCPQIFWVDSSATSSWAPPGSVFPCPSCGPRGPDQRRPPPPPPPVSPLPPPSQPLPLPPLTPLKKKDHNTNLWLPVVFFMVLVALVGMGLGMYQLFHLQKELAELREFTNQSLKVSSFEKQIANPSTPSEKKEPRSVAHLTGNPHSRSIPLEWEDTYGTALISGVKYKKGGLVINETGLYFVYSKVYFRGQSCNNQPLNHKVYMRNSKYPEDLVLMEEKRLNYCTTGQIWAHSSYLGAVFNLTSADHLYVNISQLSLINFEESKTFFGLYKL

“MFL3, anti murine-CD95L neutralizing antibody” registered a decrease in migration of cells out of SMA-560 tumor explants into collagen of 50%.
